Experimental data taken from the Human Domainome abundance scans (Beltran et al. 2025).
± gives the uncertainty stated by the source.

B1: Dynamin-binding protein, residues 242 to 304; numbered along this chain, Q6XZF7 (parent)
chain: EEPGTYGVALYRFQALEPNELDFEVGDKIRILATLEDGWLEGSLKGRTGIFPYRFVKLCPDTR

Variants of: B1
Assay: abundance fitness (aPCA) (normalised: wild type 0, dead -1); higher = more abundant; growth selection in yeast, the domain comes from the species named
Conditions: Homo sapiens

Variant | abundance fitness
G26T | -0.831 ± 0.14
L44H | -0.425 ± 0.15
L44S | -0.313 ± 0.072
P18L | -0.42 ± 0.075
P18H | -0.291 ± 0.078
T62W | -0.37 ± 0.19
T62Q | -0.092 ± 0.1
Q14D | -0.264 ± 0.064
Q14I | -0.188 ± 0.057
Q14H | -0.032 ± 0.074
Q14W | -0.572 ± 0.18
D22I | -0.913 ± 0.11
D22A | 0.25 ± 0.058
D22C | -0.125 ± 0.052
D22R | -0.185 ± 0.058
D22W | -0.624 ± 0.18
G46L | -0.749 ± 0.059
G46E | -0.473 ± 0.12
G46C | -0.719 ± 0.053
F51I | -0.752 ± 0.1
S43D | -0.32 ± 0.069
S43Y | -0.085 ± 0.055
S43K | -0.148 ± 0.15
S43V | -0.326 ± 0.063

Variant | abundance fitness
S43R | -0.346 ± 0.076
C59H | -0.227 ± 0.1
C59Y | 0.007 ± 0.051
E24V | -0.471 ± 0.06
E24F | -0.301 ± 0.067
E24M | -0.313 ± 0.2
E24L | -0.491 ± 0.082
D27E | -0.316 ± 0.15
D27W | -0.485 ± 0.16
D27M | -0.537 ± 0.24
F55K | -0.748 ± 0.14
A33S | 0.043 ± 0.054
A33V | -0.445 ± 0.084
A15C | -0.617 ± 0.076
A15Y | -0.774 ± 0.11
A15F | -0.982 ± 0.15
A15T | 0.06 ± 0.072
A15G | 0.019 ± 0.055
Y11N | -0.137 ± 0.057
Y11V | -0.086 ± 0.049
Y11S | -0.196 ± 0.045
Y11Q | 0.026 ± 0.21
F23L | -0.136 ± 0.065
F23H | -0.787 ± 0.14

Variant | abundance fitness
F23I | -0.165 ± 0.062
F23C | -0.717 ± 0.09
F23S | -0.527 ± 0.061
V8S | -0.701 ± 0.096
V8N | -0.681 ± 0.12
V8Y | -0.028 ± 0.066
G42M | -0.987 ± 0.34
G42D | -0.578 ± 0.094
G7N | -0.719 ± 0.11
G7D | -0.857 ± 0.14
L21K | -0.744 ± 0.42
R12E | -0.469 ± 0.21
G4T | 0.103 ± 0.077
G4V | 0.008 ± 0.052
G4F | 0.009 ± 0.051
G4L | -0.05 ± 0.064
D61I | -0.237 ± 0.06
T5C | -0.143 ± 0.059
T5S | -0.282 ± 0.055
T5I | -0.183 ± 0.065
F13P | -0.644 ± 0.14
F13Y | 0.213 ± 0.047
F13T | -0.831 ± 0.15
F13G | -0.677 ± 0.085

Variant | abundance fitness
P60Q | 0.087 ± 0.15
P60A | -0.059 ± 0.074
P60T | 0.088 ± 0.07
Y53A | 0.338 ± 0.079
Y53K | 0.251 ± 0.29
E17P | -1.01 ± 0.32
E17I | -0.783 ± 0.12
R47G | -0.604 ± 0.068
R47A | -0.552 ± 0.12
E1T | -0.111 ± 0.1
E2L | -0.011 ± 0.066
L35F | -0.315 ± 0.071
L35C | -0.178 ± 0.053
L35K | 0.137 ± 0.13
L35G | -0.374 ± 0.055
L35N | -0.544 ± 0.087
D37L | -0.663 ± 0.12
D37E | -0.407 ± 0.16
D37P | -0.476 ± 0.15
D37C | -0.195 ± 0.059
D37S | -0.257 ± 0.057
I31T | -0.722 ± 0.14
I31H | -0.448 ± 0.097
I31W | -0.901 ± 0.36

Variant | abundance fitness
I31C | -0.527 ± 0.078
I31L | -0.702 ± 0.097
I29N | -0.845 ± 0.11
I29S | -0.776 ± 0.075
I29M | -0.735 ± 0.24
K57I | -0.576 ± 0.071
K57Q | -0.062 ± 0.1
W39P | -0.738 ± 0.15
I50A | -0.379 ± 0.08
I50H | -0.681 ± 0.12
I50K | 0.153 ± 0.13
R54F | -0.261 ± 0.065
R54M | -0.583 ± 0.16
R54P | -0.525 ± 0.15
R54A | -0.049 ± 0.063
L16G | 0.073 ± 0.067
L16P | -0.697 ± 0.22
L16D | 0.047 ± 0.063
L16F | -0.067 ± 0.068
L16T | 0.344 ± 0.062
L16W | -0.501 ± 0.16
L58K | -0.55 ± 0.14
L58C | -0.409 ± 0.06
E36A | 0.027 ± 0.063

Variant | abundance fitness
E36V | -0.777 ± 0.093
N19P | -0.704 ± 0.15
N19A | -0.18 ± 0.06
N19M | -0.494 ± 0.31
L10Q | -0.564 ± 0.21
L10F | -0.873 ± 0.12
L10A | -0.761 ± 0.14
L40F | -0.393 ± 0.065
L40Q | -0.312 ± 0.2
L40K | -1.11 ± 0.4
L40C | 0.113 ± 0.048
P3M | 0.207 ± 0.15
P3S | 0.008 ± 0.053
G38V | -0.668 ± 0.074
G38K | -1.06 ± 0.46
G38W | -1.05 ± 0.28
G38E | -0.633 ± 0.21
G38M | -0.803 ± 0.23
G38T | -0.983 ± 0.17
Y6C | -0.502 ± 0.083
Y6R | -0.712 ± 0.1
Y6L | -0.309 ± 0.066
T34S | -0.077 ± 0.047
T34H | 0.067 ± 0.054

Variant | abundance fitness
T34P | -0.59 ± 0.13
T34C | -0.323 ± 0.055
T48K | 0.112 ± 0.091
T48V | -0.075 ± 0.048
T48I | -0.214 ± 0.058
R63T | 0.186 ± 0.056
K28R | -0.05 ± 0.053
K28D | -0.799 ± 0.15
K28G | -0.711 ± 0.074
K28N | -0.418 ± 0.086
K45E | 0.013 ± 0.14
K45F | -0.32 ± 0.08
R30C | -0.367 ± 0.076
R30I | -0.454 ± 0.087
R30E | -0.328 ± 0.25
L32Q | -0.243 ± 0.14
L32V | -0.176 ± 0.051
L32G | -0.635 ± 0.074
E41R | -0.019 ± 0.064
E41D | -0.732 ± 0.14
A9L | -0.662 ± 0.1
A9P | -0.752 ± 0.17
A9Y | -0.578 ± 0.078
